What all share (test): SPR
The target in test [1] is human FcγRIIA 167H, HIS-tagged (human) (UniProt P12318).
The target in test [2] is human FcγRIIA 167R, HIS-tagged (human) (UniProt P12318).
The target of test [3] is human FcγRIIB, HIS-tagged (human) (UniProt P31994).
The target in test [4] is human FcγRI, HIS-tagged (human) (UniProt P12314).
Test [5] concerns the target human FcγRIIIA 176F, HIS-tagged (human) (UniProt P08637).
Test [6] addresses human FcγRIIIA 176V, HIS-tagged (human) (UniProt P08637).

Broadly, the Kd is a measure of binding affinity in units of concentration. A low value points to higher affinity.

Sequence of UniProt P31994 (P31994 43-310): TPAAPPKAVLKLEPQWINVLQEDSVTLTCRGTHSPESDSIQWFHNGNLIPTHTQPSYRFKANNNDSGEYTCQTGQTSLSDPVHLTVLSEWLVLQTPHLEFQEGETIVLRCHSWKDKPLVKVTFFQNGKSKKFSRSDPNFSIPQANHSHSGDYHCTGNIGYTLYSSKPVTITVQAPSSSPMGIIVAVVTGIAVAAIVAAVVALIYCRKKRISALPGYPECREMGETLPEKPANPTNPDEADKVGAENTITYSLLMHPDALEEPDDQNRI
Sequence of UniProt P12314 (P12314 16-374): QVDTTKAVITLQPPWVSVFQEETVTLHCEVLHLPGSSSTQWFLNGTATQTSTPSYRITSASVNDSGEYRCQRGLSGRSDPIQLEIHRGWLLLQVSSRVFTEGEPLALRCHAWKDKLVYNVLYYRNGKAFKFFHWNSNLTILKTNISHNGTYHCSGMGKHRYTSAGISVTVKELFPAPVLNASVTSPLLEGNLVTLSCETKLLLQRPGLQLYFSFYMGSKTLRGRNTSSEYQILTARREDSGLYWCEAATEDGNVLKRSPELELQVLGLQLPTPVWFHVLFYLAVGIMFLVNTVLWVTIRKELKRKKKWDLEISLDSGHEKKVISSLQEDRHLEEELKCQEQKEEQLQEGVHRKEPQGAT

As for “TA99 hIgG1 S298G/T299A, aglycosylated (antibody)”, the Kd was 0.996 µM in test [1], greater than 10 µM in test [2] and 6.45 µM in test [3].

Take “TA99 hIgG1 N297Q, aglycosylated (antibody)”: the Kd in test [4] was found to be 0.295 µM. That is a sub-micromolar value.

Take “TA99 hIgG1 T299A/K326I/A327Y/L328G, aglycosylated (antibody)”: the Kd worked out at 0.243 µM in test [4]; 0.605 µM in test [1]; 2.49 µM in test [2]; 2.1 µM in test [3]; 1.24 µM in test [5]; 0.452 µM in test [6].

For the substance “human IgG1 used as a control on Biacore (antibody)”, the figures for the Kd in test [1], in test [3] and in test [6] were 1.09 µM, 6.5 µM and 0.348 µM, respectively.

Take “TA99 hIgG1 N297D/S298T/K326I/A327Y/L328G, aglycosylated (antibody)”: the Kd in test [4] is 0.005 µM; in test [2], 2.73 µM; in test [5], 1.81 µM; in test [6], 1.04 µM.

Turning to “TA99 hIgG1 N297D/S298A/K326I/A327Y/L328G, aglycosylated (antibody)”, the Kd was 0.029 µM in test [4], greater than 10 µM in test [2], 2.23 µM in test [5] and 1.05 µM in test [6].

In the case of “TA99 hIgG1 wild-type, glycosylated (from UniProt P01857 1-399) (antibody)”, the Kd in test [1] amounted to 1.15 µM; in test [2], 8.02 µM; in test [3], 3.52 µM; in test [5], 4.54 µM; in test [6] it was 1.7 µM.

“TA99 hIgG1 N297H/S298A/K326I/A327Y/L328G, aglycosylated (antibody)”: the values for the Kd in test [5] and in test [6] were 1.68 µM and 1.79 µM, respectively.

The record behind these values is article PMC5584586.
